This passage reports Km and kcat results from PMC5751167, “Buprofezin Is Metabolized by CYP353D1v2, a Cytochrome P450 Associated with Imidacloprid Resistance in Laodelphax striatellus” (International Journal of Molecular Sciences, 2017).

Substrate in data set [1]: O=[N+]([O-])NC1=NCCN1Cc1ccc(Cl)nc1
In words: substrate depletion, Sf9 microsomes. The class given is biochemical, Laodelphax striatellus. Particulars: 0-50 µM substrate; CPR co-expressed.

Substrate in data set [2]: COc1ccc([N+](=O)[O-])cc1
In words: cells, lysate or membranes. The note with it: NADPH, 30 °C, 1 pmol P450, 0-100 µM substrate, CPR co-expressed. The class given is biochemical, Laodelphax striatellus.

B1: CYP353D1v2 (Laodelphax striatellus) (protein)
chain: MVKINGKWLTKYFSTAKVKPYDEIPTLPKWPFLGHAYLFFPNGKYKLERLGDAILDLRRTLGNIFKLNLNGDDLVVSLNPDDARSMYTAEGKLPYRPSFPALANYRKNTFGSIGVVPGNGEEWLHYRKAVLPLLKSNIVVAYAEDHKLIASRFVDYIGRNRGRSNELNDVFNHLLKFAIEATSITCPGVLFNCLDESLDKSDVSNVVTKASVDFMEGMYRTLVEPPFWKMWKTKSYRKLEQSHTAIHRLIADGIEKTKEDLKNNPNKHPFMASLFENSTLSENEILVLAMEVFLGGLDATPTTLAMTLHYLAQNPEAQSKAFNEISSQKQLKYVEACLKETLRLAPSAGASSRYLAEEAVLSGYLVPANTLVAVFSPITSRDEKYFHSPLEFIPERWFRENKAMRHPFASIPFGFGARVCPGRHFVNQEMVIFLTEILRNFKLNSNNGQVGMIHRMNRIPDQEIAIFFNDR
notes: with NADPH--cytochrome P450 reductase
Usually Km stands for the concentration of substrate that gives half-maximal velocity. What is called kcat is the maximal rate divided by the concentration of active sites. On to B1, for which, in data set [1], the Km is 6.41 ± 1.27 µM and the kcat is 0.001 ± 1.3e-05 s⁻¹. Further, in data set [2], the Km was found to be 6.21 ± 0.65 µM.
